From publication PMC5942779, “Identification of a peptide inhibitor for the histone methyltransferase WHSC1” (PLoS ONE, 2018)

Columns and labels:
[1] = molecular target: WHSC1 941–1240 (UniProt O96028)
[2] = molecular target: WHSC1L1 1054–1285 (UniProt O96028)
Sequence of WHSC1L1 1054–1285 (O96028 1054-1285): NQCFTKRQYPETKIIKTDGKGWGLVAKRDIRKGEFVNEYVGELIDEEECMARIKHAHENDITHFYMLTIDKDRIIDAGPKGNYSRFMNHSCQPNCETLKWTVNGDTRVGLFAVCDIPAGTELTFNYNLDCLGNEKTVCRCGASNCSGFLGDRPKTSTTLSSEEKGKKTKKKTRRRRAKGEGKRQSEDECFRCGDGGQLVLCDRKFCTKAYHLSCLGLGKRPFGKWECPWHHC

Sequence of WHSC1 941–1240 (O96028 941-1240): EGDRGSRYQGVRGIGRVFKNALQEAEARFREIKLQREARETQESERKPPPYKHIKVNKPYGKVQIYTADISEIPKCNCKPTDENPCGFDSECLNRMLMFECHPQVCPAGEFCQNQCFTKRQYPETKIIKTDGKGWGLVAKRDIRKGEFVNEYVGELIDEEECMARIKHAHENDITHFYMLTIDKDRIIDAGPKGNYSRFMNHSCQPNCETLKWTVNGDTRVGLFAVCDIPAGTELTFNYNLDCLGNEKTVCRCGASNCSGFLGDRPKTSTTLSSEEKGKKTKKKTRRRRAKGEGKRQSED

Work on Ac-GVARI-NH2 [PTD3] yielded a Biochemical IC50: inhibition of 3H-methyl transfer from SAM to the biotinylated H4 peptide by WHSC1 941–1240 [1] of 640 µM and a Biochemical IC50: inhibition of 3H-methyl transfer from SAM to the biotinylated H4 peptide by WHSC1L1 1054–1285 [2] of over 1000 µM.
